Assay results as given in patent publication US20060040855A1 (published 2006).

Biological target: rat LH receptor (rat, UniProt P16235)
Assay: cell-based or functional assay

Row | Efficacy, cyclic AMP accumulation | Binder
1 | 36% | dgα5-β8 (dg-αQ5C/hCGβR8C) (ligand) chain 1: not shown chain 2: SKEPLRPCCRPINATLAVEKEGCPVCITVNTTICAGYCPTMTRVLQGVLPALPQVVCNYRDVRFESIRLPGCPRGVNPVVSYAVALSCQCALCRRSTTDCGGPKDHPLTCDDPRFQDSSSSKAPPPSLPSPSRLPGPSDTPILPQ
2 | 14% | dgα27-β44 (dg-αQ27C/hCGβV44C) (ligand) chain 1: not shown chain 2: SKEPLRPRCRPINATLAVEKEGCPVCITVNTTICAGYCPTMTRCLQGVLPALPQVVCNYRDVRFESIRLPGCPRGVNPVVSYAVALSCQCALCRRSTTDCGGPKDHPLTCDDPRFQDSSSSKAPPPSLPSPSRLPGPSDTPILPQ
3 | 34% | dgα76-β44 (dg-αV76C/hCGβV44C) (ligand) chain 1: not shown chain 2: SKEPLRPRCRPINATLAVEKEGCPVCITVNTTICAGYCPTMTRCLQGVLPALPQVVCNYRDVRFESIRLPGCPRGVNPVVSYAVALSCQCALCRRSTTDCGGPKDHPLTCDDPRFQDSSSSKAPPPSLPSPSRLPGPSDTPILPQ
